Assays:
Assay in all cases: immunoprecipitation of point-mutated molecules (FIG. 5)
Dsg3-M2 = target: T1, Dsg3-M2 (human, UniProt P32926 50-615, T31N; K33Q; I34V)
T1 construct: extracellular domain; also called point-mutated human Dsg3 molecule M2; not shown: His tag of vector pEVmod-His
T1 sequence (looked up): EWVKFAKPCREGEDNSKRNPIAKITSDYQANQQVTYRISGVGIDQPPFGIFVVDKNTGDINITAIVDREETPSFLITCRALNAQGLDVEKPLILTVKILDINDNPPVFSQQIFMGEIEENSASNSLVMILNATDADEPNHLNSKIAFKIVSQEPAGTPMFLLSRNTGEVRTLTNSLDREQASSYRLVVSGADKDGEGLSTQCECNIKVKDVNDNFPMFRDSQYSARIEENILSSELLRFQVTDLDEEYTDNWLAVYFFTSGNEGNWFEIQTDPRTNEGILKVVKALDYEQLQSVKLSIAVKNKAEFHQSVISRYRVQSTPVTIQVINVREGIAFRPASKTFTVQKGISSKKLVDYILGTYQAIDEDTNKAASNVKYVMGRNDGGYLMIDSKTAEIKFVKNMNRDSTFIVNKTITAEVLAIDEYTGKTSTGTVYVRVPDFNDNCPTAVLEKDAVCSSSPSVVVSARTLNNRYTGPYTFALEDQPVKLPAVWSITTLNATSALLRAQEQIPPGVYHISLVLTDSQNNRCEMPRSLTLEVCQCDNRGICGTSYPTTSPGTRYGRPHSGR

Dsg3-M1 = target: T2, Dsg3-M1 (human, UniProt P32926 50-615, T25H; Y28C; Q29A)
T2 construct: extracellular domain; Dsg3-specific residues changed to the Dsg1-specific ones; also called point-mutated human Dsg3 molecule M1; not shown: His tag of vector pEVmod-His
T2 sequence (looked up): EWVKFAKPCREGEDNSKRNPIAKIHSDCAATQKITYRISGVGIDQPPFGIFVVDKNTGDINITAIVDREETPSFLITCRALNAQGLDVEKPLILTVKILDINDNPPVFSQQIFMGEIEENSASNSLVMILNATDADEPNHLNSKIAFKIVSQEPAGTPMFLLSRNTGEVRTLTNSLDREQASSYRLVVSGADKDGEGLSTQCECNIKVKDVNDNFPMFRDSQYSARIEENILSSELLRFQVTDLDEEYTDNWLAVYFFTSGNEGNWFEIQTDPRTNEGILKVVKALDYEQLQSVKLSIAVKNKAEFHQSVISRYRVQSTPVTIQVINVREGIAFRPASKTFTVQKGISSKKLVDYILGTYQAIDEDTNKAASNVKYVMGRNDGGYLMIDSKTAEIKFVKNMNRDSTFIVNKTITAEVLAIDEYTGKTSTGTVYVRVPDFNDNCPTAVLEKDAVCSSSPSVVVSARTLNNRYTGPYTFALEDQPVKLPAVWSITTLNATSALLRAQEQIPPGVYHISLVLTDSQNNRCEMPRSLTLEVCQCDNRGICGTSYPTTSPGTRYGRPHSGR

Dsg3-M7 = target: T3, Dsg3-M7 (human, UniProt P32926 50-615, V3I; K7A; P8A)
T3 construct: extracellular domain; also called hDsg3-M7
T3 sequence (looked up): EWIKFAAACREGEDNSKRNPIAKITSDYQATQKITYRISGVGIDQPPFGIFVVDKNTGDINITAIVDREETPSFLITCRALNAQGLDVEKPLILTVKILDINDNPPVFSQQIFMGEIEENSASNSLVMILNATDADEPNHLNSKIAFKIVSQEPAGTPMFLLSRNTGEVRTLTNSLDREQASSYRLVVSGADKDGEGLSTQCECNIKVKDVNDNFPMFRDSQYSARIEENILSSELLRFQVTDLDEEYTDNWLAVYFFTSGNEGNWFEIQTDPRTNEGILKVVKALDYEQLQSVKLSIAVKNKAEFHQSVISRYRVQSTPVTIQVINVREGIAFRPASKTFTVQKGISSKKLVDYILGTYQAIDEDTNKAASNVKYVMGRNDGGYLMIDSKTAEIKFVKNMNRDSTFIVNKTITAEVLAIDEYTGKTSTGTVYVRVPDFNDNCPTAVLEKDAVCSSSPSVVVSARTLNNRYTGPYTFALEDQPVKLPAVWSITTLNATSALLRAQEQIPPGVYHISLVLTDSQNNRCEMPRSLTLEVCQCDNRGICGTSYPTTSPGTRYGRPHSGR

Dsg3-M4 = target: T4, Dsg3-M4 (human, UniProt P32926 50-615, E70V; S73F)
T4 construct: extracellular domain; also called point-mutated human Dsg3 molecule M4; not shown: His tag of vector pEVmod-His
T4 sequence (looked up): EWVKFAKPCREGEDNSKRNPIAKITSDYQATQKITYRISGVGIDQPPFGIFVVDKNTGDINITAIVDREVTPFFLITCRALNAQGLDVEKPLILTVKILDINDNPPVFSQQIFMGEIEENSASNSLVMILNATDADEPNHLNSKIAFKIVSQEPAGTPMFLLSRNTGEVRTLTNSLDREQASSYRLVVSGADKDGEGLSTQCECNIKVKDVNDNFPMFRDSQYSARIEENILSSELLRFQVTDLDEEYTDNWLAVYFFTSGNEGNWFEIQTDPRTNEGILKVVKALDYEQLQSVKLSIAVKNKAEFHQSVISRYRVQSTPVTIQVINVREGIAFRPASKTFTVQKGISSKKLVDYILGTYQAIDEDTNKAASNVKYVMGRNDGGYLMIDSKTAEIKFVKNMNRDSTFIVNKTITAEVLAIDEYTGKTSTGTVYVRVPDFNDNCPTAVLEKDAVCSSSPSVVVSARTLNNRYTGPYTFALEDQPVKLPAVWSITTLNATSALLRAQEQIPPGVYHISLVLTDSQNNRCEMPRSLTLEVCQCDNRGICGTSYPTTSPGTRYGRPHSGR

- binding result (Dsg3-M2): binds
- binding result (Dsg3-M1): binds
- binding result (Dsg3-M7): no binding
- binding result (Dsg3-M4): binds
B1: anti-Dsg3 monoclonal antibody AK23 (antibody, mouse IgG1, V domains shown)
VH: QVQLQQSGTELVKPGASVKLSCKSSGYTFTSYWINWVKQRPGQGLEWIGNINPSNGGINYNEKFKSKATLTVDKSSSTAYMQLKSLTSEDSAVYYCARGGYDGYPWGQGTTVTVS
VL: DIQMTQSPKFLLVSAGDRVTITCKASQSVSYDVAWYQQKPGQSPKLLISYASNRYTGVPDRFTGSGYGSDFTFTISTVQTEDLAVYFCQQDYSSPWTFGGGTKLELKR
notes: Mouse IgG1 kappa hybridoma antibody

From US20050025760A1 (KEIO UNIVERSITY, published 2005)
